Here are results for 4 molecules from patent US6458539, “Photoselection of nucleic acid ligands” (Somalogic, Inc.).

In data set [1] the target is PDGF (platelet derived growth factor) (UniProt P01127). The settings on record: 5-bromo-2'-deoxyuridine (BrdU) substituted for T; photocrosslinking rate, 308 nm.
Data set [2] has the same target. The data set is described as follows: filter. Particulars: 5-bromo-2'-deoxyuridine (BrdU) substituted for T.
In data set [3] the target is T1, bFGF(155) (basic fibroblast growth factor, FGF2) (Homo sapiens, UniProt P09038 SEQ:1-155). Briefly: filter; 1xPBS, 2 mM MgCl2, 0.01% HSA, 1 mM DTT, 37 C; Table 7 gives a different KD of 5.3e-9 M; Table 2 prints CACCC where SEQ 70 has CAGCC. The settings on record: tags: expressed in E. coli; Bachem California lot SN 433; label: 5'-32P. The method, then:
(§1) Nitrocellulose filter binding was used to assess ligand affinity for bFGF_{(155)}. This was accomplished by first preparing 2,000 cpm/30 μL of 5'-^32P-radiolabeled material (≈1–5 fmol) of each sequence by dilution with 1×crosslink binding buffer (XLBB) (1×PBS/2 mM MgCl_2/0.01% HSA/1.0 mM dithiothreitol (DTT)) to give 2×DNA. Each 2×oligonucleotide sample was mixed with 30 μL of each bFGF_{(155)} concentration to be evaluated in a 96 well tray. bFGF_{(155)} concentrations were prepared by serial dilution with 1×XLBB. After incubation at 37° C. for 15 minutes, a multi-pipeter was used to load 40 μL of each DNA/bFGF_{(155)} mixture onto a pre-washed Gibco nitrocellulose binding curve apparatus followed by washing with a dissociation wash buffer. Bound DNA was then measured by phosphorimage and a binding curve for the percent bound DNA vs. [bFGF] was calculated by Kaleidograph ver. 3.09 software (Synergy Software Co., Reading, Pa).

Data set [4] has as its target T1, bFGF(155) (basic fibroblast growth …). Briefly: filter; 1xPBS, 2 mM MgCl2, 0.01% HSA, 1 mM DTT, 37 C; Table 7 gives a different KD of 1.3e-10 M. The settings on record: tags: expressed in E. coli; Bachem California lot SN 433; label: 5'-32P. The method, then: as §1
The target of data set [5] is VEGF (vascular endothelial growth factor) (UniProt P15692-4 P15692-4:27-191). The data set is described as follows: filter; 1xPBS, 2 mM MgCl2, 37 C. The settings on record: tags: R&D Systems; chain copies: 2; label: 5'-32P.
Chain of VEGF (vascular endothelial growth factor) (P15692 other isoform, or with tags, fused parts or gaps): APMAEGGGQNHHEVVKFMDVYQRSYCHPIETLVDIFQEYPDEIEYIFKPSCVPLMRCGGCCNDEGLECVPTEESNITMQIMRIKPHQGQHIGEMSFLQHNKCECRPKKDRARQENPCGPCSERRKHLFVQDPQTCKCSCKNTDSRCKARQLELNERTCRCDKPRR

Chain of PDGF (platelet derived growth factor) (P01127 82-190): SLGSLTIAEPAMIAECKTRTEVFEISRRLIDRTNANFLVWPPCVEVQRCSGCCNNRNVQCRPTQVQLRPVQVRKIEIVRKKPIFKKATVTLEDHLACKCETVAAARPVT
T1 sequence (P09038 134-288): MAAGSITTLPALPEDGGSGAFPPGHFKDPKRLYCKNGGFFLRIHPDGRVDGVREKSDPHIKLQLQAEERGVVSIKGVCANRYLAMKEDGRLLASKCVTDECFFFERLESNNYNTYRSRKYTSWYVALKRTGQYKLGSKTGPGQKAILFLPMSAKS

The molecule “GGGAGGACGATGCGGGCGAAGGCACACCGAGTTCATAGTATCCCACAGACGACGAGCGGGA [06.15]” gave an activity in data set [1] of 65000 M⁻¹ s⁻¹. In data set [2] (1500-fold weaker than bFGF (Table 6), Table 3 states relative KD >1000), the Kd (as a rule, the free concentration of one partner at which half of the binding sites on the other are occupied at equilibrium, for simple one-to-one binding) turned out to be 200 nM.
On to “GGGAGGACGATGCGGTGACGTAAGAGTGTAATCGATGCAGCCTGGCAGACGACGAGCGGGA [06.50]”, for which the activity in data set [1] was found to be 61000 M⁻¹ s⁻¹. For the same molecule, in data set [2] (53-fold weaker than bFGF), the Kd was 280 nM.

B1: 06.50 (ssDNA)
DNA: GGGAGGACGATGCGGTGACGTAAGAGTGTAATCGATGCAGCCTGGCAGACGACGAGCGGGA
modifications: 5-bromo-2'-deoxyuridine (BrdU) substituted for T
Take B1: the equilibrium dissociation constant (Kd) in data set [3] stood at 0.56 nM.

B2: 06.15 (ssDNA)
DNA: GGGAGGACGATGCGGGCGAAGGCACACCGAGTTCATAGTATCCCACAGACGACGAGCGGGA
modifications: 5-bromo-2'-deoxyuridine (BrdU) substituted for T
For B2, in data set [4], the dissociation constant Kd came out at 0.016 nM. In data set [5], the binding signal is > 1000 fold KD relative to bFGF.
